21 molecules from US20240409645A1 can be followed below.

The labels stand for the following.
B1: 17-MP02C09 VHH-hFc, monospecific monovalent (Fc fusion, part only; not given: Both Fc arms and linker, not shown: another chain or arm of the molecule; a dimerising Fc or GST; large carriers; small tags and cut ends)
VHH: QVQLQESGGGLVQAGGSLRLSCVASGSVSSINGMAWYRQGADNQRVLVAAISRVGNTAYGDSVKGRFTISRQNARNTVYLQMNSLKPEDTAVYYCNADSWGGDDYWGQGTQVTVSS
B2: 19-MP03F08 VHH-hFc, monospecific monovalent (Fc fusion, part only; not given: Both Fc arms and linker, not shown: another chain or arm of the molecule; a dimerising Fc or GST; large carriers; small tags and cut ends)
VHH: EVQLVESGGGLVQTGGSLRLSCAASGGTFSRDAMAWFRQVPGKEREFVALISWSGATTNYADSVKGRFAISRDNGKNTVYLQMNRLKPADTAIYYCAADRRPMGSRSYFEPTEYDDWGQGTQVTVSS
B3: 23-MP06F03 VHH-hFc, monospecific monovalent (Fc fusion, part only; not given: Both Fc arms and linker, not shown: another chain or arm of the molecule; a dimerising Fc or GST; large carriers; small tags and cut ends)
VHH: QVQLVESGGGLVQAGGSLRLSCAVSGDVFVRYTMAWFRQAPGKEREFVASVTDSGRTTDYVHSVKGRFTVSRDNAKNTVYLQMNNLKPEDTAVYYCAANTDYFQIKSLDANTWGQGTQVTVSS
B4: 26-MP06A07 VHH-hFc, monospecific monovalent (Fc fusion, part only; not given: Both Fc arms and linker, not shown: another chain or arm of the molecule; a dimerising Fc or GST; large carriers; small tags and cut ends)
VHH: B3 VHH with V5Q, V24A, D59E, H62D, V79A, V93I, K106R, A110L
B5: 24-MP06E05 VHH-hFc, monospecific monovalent (Fc fusion, part only; not given: Both Fc arms and linker, not shown: another chain or arm of the molecule; a dimerising Fc or GST; large carriers; small tags and cut ends)
VHH: QVQLVESGGELVQGGASLRLSCAASGRTFSNANMAWFRQAPEKEREFVALITWSSGSTLYADSVKGRFTISRDNARKMVYLQMNSLKPEDTAVYYCAADGPPYSGTYYRYDTYDYWGQGTQVTVSS
B6: 16-MP02B08 VHH-hFc, monospecific monovalent (Fc fusion, part only; not given: Both Fc arms and linker, not shown: another chain or arm of the molecule; a dimerising Fc or GST; large carriers; small tags and cut ends)
VHH: EVQLVESGGGLVQAGGSLRLSCAASGRAIENYPVGWFRQAPGKEREFVAAITWISGSTLYADSVKGRFTISRDNAKNTVYLQMSSLKPEDTALYYCAAALKTITRGQNDYSYWGQGTQVTVSS
B7: 22-MP03F12 VHH-hFc, monospecific monovalent (Fc fusion, part only; not given: Both Fc arms and linker, not shown: another chain or arm of the molecule; a dimerising Fc or GST; large carriers; small tags and cut ends)
VHH: EVQLVESGGGLVQAGGSLRLSCAASGSIFSINAMAWFRQVPGMERELVAAISRDGGASVYRDSVKGRFTISRDNSKNTVYLQMNTLKPEDTAIYVCAATRAIGWTARWITTDFDFWGQGTQVTVSS
B8: 34-MP04A12 VHH-hFc, monospecific monovalent (Fc fusion, part only; not given: Both Fc arms and linker, not shown: another chain or arm of the molecule; a dimerising Fc or GST; large carriers; small tags and cut ends)
VHH: QVQLVESGGGLVQAGSSLRLSCAASGRTLSRLAMGWFRQAPGKEREFVAVNSWGGDTFYADSVEGRFTYSRDNAKSAVYLQMNSLQPEDTAVYYCAAAPTSFATTAYSSSNSYAYWGQGAQVTVSS
B9: 28-MP04D02 VHH-hFc, monospecific monovalent (Fc fusion, part only; not given: Both Fc arms and linker, not shown: another chain or arm of the molecule; a dimerising Fc or GST; large carriers; small tags and cut ends)
VHH: QVQLVESGGGLVQAGGSLRLSCAASGRTLSRYAMGWFRQAPGKEREFVTANSWGGDTYYADSVQGRFTFSRDNAKNTVYLQMNSLQPEDTAVYYCAAAPTSFATTAYSGSNSYAYWGQGTQVTVSS
B10: 36-MP07F02 VHH-hFc, monospecific monovalent (Fc fusion, part only; not given: Both Fc arms and linker, not shown: another chain or arm of the molecule; a dimerising Fc or GST; small tags and cut ends)
VHH: B9 VHH with K43S, T49A, N51S, Y58F, Q64E, T77A, V92A, A103P, G109S
B11: 29-MP04H02 VHH-hFc, monospecific monovalent (Fc fusion, part only; not given: Both Fc arms and linker, not shown: another chain or arm of the molecule; a dimerising Fc or GST; large carriers; small tags and cut ends)
VHH: QVQLVESGGGLVQAGGSLRLACVASGLTFDNYYMGWFRQAPGKEREFVAGIIWNGDHTAYADSIKGRFTISRDNAKNTAYLRMNSLKPEDTAVYYCAATFWIERATTPDIGQYAYWGQGTQVTVSS
B12: 27-MP04G01 VHH-hFc, monospecific monovalent (Fc fusion, part only; not given: Both Fc arms and linker, not shown: another chain or arm of the molecule; a dimerising Fc or GST; large carriers; small tags and cut ends)
VHH: QVQLVESGGGLVQAGGSLTLSCAAPGRTFGTDVVGWFRQAPGKEREFVASISRSGDGIYYDDSVKGRFTISRNNAWNTVNLQMNSLKVEDTAVYYCAAGDGWSTYDYWGQGTQVTVSS
B13: 18-MP03C03 VHH (periplasmic extract) (VHH)
VHH: QVQLVESGGGLVQPGGSLRLSCAISGGTLDSYGIGWVRQAPGKQREGVSCMSRSDDRTYYADSVKGRFTISKDSAKNTVYLQMTSLKPEDTAVYYCAAVDAYGCSLVQPTTYDFWGLGTQVTVSS
B14: 22-MP03F12 VHH (periplasmic extract) (VHH)
VHH: B7 VHH
B15: 15-MP02E06 VHH (periplasmic extract) (VHH)
VHH: QVQLVESGGGSVQPGGSLRLSCAASGFTFSNYAMSWVRQAPGKGLEWVASITGFGRGTDYADSVKGRFTISRDNAEDTLYLQMNSLKPEDTAVYYCAKYSSSTYYPPTPARGRDYRGQGTQVTVSS
B16: 1-MP01H01 VHH (periplasmic extract) (VHH)
VHH: EVQLVESGGGLVQAGGSLRLSCAASGRTFRTHNMGWFRRAPGKEREFVAAISWNVDNTLYADSVKGRFTISRDNGRNMVYLQMNSLKPEDTAVYYCAADNIPLSSDVAATATEYDYWGQGTQVTVSS
B17: 3-MP01E03 VHH (periplasmic extract) (VHH)
VHH: QVQLVESGGGLVQAGGSLRLSCTASGRTLSSYSMAWFRQAADKGREFVTAISSSGVVTHVLDSVKGRFTISRDNAKNTVYLQMNSLQPEDTALYFCAGTASSYSTYEANYNYWGQGTLVTVSS
B18: 6-MP01G05 VHH (periplasmic extract) (VHH)
VHH: QVQLQESGGGLVQAGGSLRLSCAASGRTFSSYAMGWFRQAPGKEREFVAVISWNVDNTEYTDSVKGRFTISRDNDKNMVYLQMNSLKPEDTAVYYCAADSIPLSSDMSPTATEYGYWGQGTQVTVSS
B19: 5-MP01F05 VHH (periplasmic extract) (VHH)
VHH: EVQLVESGGGLVQAGGSLRLSCAASIRAFTTWSMAWFRQAPGKEREYVARINVSGSVTYYADFVKGRFTISRDNAKKTMYLEMNNLKPEDTALYYCAADRTGVGTNDYNYWGQGTQVTVSS
B20: 2-MP01A02 VHH (periplasmic extract) (VHH)
VHH: QVQLVESGGGLVQPGGSLRLSCATSGFTFRNNFMSWVRQAPGKGLEWVSTISYGGESTTYAESVKGRFTISRDNAKNTLYLQMNNLKPEDTAVYYCAKATSYDSIRSGSRGQGTQVTVSS
B21: 8-MP01C12 VHH (periplasmic extract) (VHH)
VHH: B20 VHH with R30S, W47F, S63A, V93I, D103T, S107G, G108A, S109P

Numbering of substitutions follows the chain as printed.

For the first experiment, the target named is T1, cynomolgus monkey IL-2Rβ/CD122 subunit (cynomolgus monkey) (UniProt Q38J85).
T1 sequence (looked up): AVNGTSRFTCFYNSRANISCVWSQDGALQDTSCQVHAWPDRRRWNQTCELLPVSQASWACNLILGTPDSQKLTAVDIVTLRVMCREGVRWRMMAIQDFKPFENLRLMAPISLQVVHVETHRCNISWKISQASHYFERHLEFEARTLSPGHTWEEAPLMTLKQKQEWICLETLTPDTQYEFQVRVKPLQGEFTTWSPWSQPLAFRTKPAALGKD
Kind of experiment: ELISA, monovalent VHH-hFc. (In general: ELISA stands for enzyme-linked immunosorbent assay.)
For orientation: EC50 means the concentration that produces a half-maximal response. Regarding B1, the EC50 came to 0.495 nM.
The molecule B2 gave an EC50 of 0.953 nM.
Still for that read-out and setting: as for B3, the figure is 0.26 nM; as for B4, 0.102 nM.
Same read-out and setting: as for B5, the figure is 0.657 nM; as for B6, 0.28 nM; as for B7, 0.156 nM.

The target of another experiment is cynomolgus monkey IL-2Rγ/CD132 subunit (cynomolgus monkey). Description: ELISA, monovalent VHH-hFc.
cynomolgus monkey IL-2Rγ/CD132 subunit (cynomolgus monkey), sequence (chain, as listed by the source): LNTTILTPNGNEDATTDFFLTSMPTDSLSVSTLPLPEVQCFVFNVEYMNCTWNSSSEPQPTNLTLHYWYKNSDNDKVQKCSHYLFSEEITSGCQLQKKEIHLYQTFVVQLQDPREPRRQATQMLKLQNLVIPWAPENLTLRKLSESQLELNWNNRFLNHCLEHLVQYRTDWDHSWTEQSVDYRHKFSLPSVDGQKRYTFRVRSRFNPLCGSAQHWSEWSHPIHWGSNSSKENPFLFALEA
For B8, the EC50 is 0.158 nM.
On the same count and under the same terms, as for B9, the figure is 0.723 nM; as for B10, 0.222 nM; as for B11, 0.534 nM.
B12 showed an EC50 of 0.153 nM.

A further experiment deals with T2, human interleukin-2 receptor β-chain (IL-2Rβ; CD122), recombinant protein (human) (UniProt P14784).
T2 sequence: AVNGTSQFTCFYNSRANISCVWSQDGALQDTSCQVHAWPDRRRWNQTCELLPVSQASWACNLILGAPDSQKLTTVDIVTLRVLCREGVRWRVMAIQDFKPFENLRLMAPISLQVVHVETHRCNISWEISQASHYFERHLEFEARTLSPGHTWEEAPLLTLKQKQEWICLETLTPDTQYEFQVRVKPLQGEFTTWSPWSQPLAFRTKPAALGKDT
Kind of experiment: ELISA, monovalent VHH-hFc.
With B1, the EC50 is 0.148 nM.
Take B2: the EC50 is 0.67 nM.
Turning to B3, the EC50 amounted to 0.174 nM.
As for B4, the EC50 stood at 0.086 nM.
Same read-out and setting: in the case of B5 it was 0.206 nM.
Take B6: the EC50 is 0.215 nM.
Consider B7, for which the EC50 came to 0.092 nM.

For the next experiment, the target named is T3, human common cytokine receptor γ-chain (γc; IL-2Rγ; CD132), recombinant protein (human) (UniProt P31785).
T3 sequence: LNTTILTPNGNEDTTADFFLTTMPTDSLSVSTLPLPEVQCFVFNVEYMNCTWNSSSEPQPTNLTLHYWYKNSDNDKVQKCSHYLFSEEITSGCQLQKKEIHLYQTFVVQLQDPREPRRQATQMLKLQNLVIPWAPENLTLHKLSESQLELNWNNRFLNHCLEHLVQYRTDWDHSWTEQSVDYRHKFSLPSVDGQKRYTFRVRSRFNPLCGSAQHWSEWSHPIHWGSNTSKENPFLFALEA
Description: ELISA, monovalent VHH-hFc.
Take B8: the EC50 worked out at 0.132 nM.
For B9, the EC50 came to 0.62 nM.
Turning to B10, the EC50 was 0.145 nM.
On to B11, for which the EC50 was 0.683 nM.
Consider B12, for which the half-maximal effective concentration (EC50) stood at 0.155 nM.

For another experiment, the target named is T1, cynomolgus monkey IL-2Rβ/CD122 subunit (cynomolgus monkey). Description: ELISA, monovalent; EC50 cyno vs human subunit.
In the case of B1, the Fold change came to 3.3 fold.
Still for that read-out and setting: in the case of B2 it was 1.4 fold; in that of B3, 1.5 fold.
Turning to B4, the Fold change stood at 1.2 fold.
B5 displayed a Fold change of 3.2 fold.
For B6, the Fold change was 1.3 fold.
As for B7, the Fold change stood at 1.7 fold.

A further experiment deals with cynomolgus monkey IL-2Rγ/CD132 subunit (cynomolgus monkey). Description: ELISA, monovalent; EC50 cyno vs human subunit.
B8 yielded a Fold change of 1.2 fold.
Same read-out and setting: as for B9, the figure is 1.2 fold.
Regarding B11, the Fold change stood at 0.8 fold.
On the same count and under the same terms, as for B12, the figure is 1 fold.

The target in another experiment is T4, mouse IL-2Rβ (mouse) (UniProt P16297).
T4 sequence (looked up): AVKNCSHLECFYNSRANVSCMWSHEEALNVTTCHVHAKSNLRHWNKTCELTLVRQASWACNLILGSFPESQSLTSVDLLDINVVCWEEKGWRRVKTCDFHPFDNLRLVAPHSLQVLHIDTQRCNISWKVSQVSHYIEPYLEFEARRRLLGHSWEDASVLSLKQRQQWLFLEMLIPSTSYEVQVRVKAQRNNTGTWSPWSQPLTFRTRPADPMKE
Kind of experiment: P.E. binding ELISA.
In turn, B13 gave an OD450 nm of 0.048 OD450 nm.
With B14, the OD450 nm was 0.048 OD450 nm.
Molecule B15 yielded an OD450 nm of 0.048 OD450 nm.

The next experiment concerns the target T5, mouse IL-2Rα (mouse) (UniProt P01590).
T5 sequence (looked up): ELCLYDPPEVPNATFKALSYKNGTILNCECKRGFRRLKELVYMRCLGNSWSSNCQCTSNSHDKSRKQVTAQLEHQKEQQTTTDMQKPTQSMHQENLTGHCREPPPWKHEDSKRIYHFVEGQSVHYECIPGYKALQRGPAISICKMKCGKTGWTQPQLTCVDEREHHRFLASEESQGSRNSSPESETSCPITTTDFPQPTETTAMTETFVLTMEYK
Description: P.E. binding ELISA.
Molecule B16 showed an OD450 nm of 0.048 OD450 nm.
Still for that read-out and setting: in the case of B17 it was 0.046 OD450 nm; in that of B18, 0.046 OD450 nm; in that of B19, 0.046 OD450 nm.
On the same count and under the same terms, as for B20, the figure is 0.046 OD450 nm; as for B21, 0.045 OD450 nm.
